Data published in EP4814014A1, “BINDING MOLECULE AND ANTIBODY-DRUG CONJUGATE AND USE THEREOF” (priority 2023, dated 2025).
One block for each binder: values may come before it.

What was measured:
human EGFR on cells = biological target: T1, human EGFR on cells (human, UniProt P00533 25-1210); assay: FACS, VHH-His on CHOK1-huEGFR cells
T1 construct: whole, on cells; the cell line is named under assay; also called CHO-S-EGFR; CHOK1-huEGFR

human cMet on cells = biological target: T2, human cMet on cells (human, UniProt P08581 25-1390); assay: FACS, VHH-His on MKN45 cells
T2 construct: whole, on cells; Cell lines: CHO-S-cMet, CHOK1-hucMet, EBC-1, MKN45, NCI-H1975; the cell line is named under assay; also called CHO-S-cMet; CHOK1-hucMet
T2 sequence (P08581 25-1390): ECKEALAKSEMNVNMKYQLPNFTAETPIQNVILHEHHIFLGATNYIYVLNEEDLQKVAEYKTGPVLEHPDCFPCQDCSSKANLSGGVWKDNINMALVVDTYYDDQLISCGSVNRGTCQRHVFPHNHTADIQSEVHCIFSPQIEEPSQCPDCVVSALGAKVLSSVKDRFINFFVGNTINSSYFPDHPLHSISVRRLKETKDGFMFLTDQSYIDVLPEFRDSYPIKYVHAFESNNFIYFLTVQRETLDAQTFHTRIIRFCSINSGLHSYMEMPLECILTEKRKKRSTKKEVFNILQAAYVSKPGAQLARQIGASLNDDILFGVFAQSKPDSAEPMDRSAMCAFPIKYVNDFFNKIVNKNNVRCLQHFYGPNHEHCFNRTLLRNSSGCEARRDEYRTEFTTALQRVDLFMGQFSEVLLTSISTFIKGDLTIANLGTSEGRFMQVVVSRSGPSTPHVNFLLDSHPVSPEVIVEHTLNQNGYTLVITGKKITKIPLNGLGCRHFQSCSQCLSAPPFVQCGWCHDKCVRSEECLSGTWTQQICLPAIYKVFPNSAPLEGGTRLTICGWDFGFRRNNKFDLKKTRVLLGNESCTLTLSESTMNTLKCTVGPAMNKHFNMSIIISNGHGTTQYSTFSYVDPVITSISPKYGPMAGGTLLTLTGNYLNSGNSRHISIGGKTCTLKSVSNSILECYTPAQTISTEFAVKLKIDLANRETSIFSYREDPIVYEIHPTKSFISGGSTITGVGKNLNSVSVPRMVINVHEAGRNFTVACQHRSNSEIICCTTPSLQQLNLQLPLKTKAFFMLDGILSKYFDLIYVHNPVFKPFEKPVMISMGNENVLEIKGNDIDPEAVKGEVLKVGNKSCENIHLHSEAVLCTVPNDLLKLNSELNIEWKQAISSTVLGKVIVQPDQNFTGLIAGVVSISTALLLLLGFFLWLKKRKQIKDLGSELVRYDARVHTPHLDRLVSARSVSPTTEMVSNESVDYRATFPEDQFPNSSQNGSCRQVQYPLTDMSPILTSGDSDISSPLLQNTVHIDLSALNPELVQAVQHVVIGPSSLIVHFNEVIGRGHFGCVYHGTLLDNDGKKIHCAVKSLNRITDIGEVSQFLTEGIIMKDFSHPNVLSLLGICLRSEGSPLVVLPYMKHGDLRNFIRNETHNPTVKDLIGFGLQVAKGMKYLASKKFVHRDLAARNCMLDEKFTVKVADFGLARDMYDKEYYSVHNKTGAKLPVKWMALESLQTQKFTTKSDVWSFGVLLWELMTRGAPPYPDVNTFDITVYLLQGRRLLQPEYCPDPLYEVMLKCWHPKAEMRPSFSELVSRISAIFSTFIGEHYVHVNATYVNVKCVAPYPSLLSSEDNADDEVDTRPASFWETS

[1] = biological target: T3, cynomolgus monkey EGFR-his (ECD, Met1-Ser645) (cynomolgus monkey, UniProt A0A2K5WK39 1-645); assay: SPR, antigen amine-coupled on GLM chip, antibody injected, 1:1 model
T3 construct: range 1-645; Bought; range as printed includes Met1

[2] = biological target: T4, human EGFR-his (ECD, Met1-Ser645) (human, UniProt P00533 25-645); assay: as above
T4 construct: range 1-645; Bought; range as printed includes Met1

[3] = biological target: T5, human cMet-his (ECD, Met1-Thr932) (human, UniProt P08581 25-932); assay: as above
T5 construct: Bought; range as printed includes Met1
T5 sequence (P08581 25-932): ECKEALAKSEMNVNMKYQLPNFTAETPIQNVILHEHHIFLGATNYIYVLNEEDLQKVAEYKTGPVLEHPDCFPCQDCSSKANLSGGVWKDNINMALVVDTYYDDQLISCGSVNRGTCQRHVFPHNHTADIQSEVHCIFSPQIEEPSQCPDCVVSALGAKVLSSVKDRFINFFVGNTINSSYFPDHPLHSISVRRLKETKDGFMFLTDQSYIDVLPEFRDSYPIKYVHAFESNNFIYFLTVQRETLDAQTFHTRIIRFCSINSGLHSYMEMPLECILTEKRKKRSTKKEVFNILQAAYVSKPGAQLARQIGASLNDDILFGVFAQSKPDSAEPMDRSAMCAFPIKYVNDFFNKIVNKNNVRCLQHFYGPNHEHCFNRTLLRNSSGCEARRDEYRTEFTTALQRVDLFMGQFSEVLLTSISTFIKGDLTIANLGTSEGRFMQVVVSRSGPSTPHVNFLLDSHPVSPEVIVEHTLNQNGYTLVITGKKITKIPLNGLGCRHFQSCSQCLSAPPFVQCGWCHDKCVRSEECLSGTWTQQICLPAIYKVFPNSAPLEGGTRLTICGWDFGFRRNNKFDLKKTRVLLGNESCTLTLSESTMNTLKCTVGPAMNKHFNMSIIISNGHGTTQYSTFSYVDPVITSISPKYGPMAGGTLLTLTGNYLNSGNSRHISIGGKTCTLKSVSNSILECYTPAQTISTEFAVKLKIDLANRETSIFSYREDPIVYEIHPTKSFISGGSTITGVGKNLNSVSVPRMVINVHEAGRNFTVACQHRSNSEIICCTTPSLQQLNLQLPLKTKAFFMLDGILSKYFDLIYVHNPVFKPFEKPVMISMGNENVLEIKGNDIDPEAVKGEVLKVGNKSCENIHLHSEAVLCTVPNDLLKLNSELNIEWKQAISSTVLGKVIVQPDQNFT

[4] = biological target: T6, cynomolgus monkey cMet-his (ECD, Met1-Thr932) (cynomolgus monkey, UniProt A0A2K5UM36 25-932); assay: as above
T6 construct: Bought; range as printed includes Met1
T6 sequence (A0A2K5UM36 entry or part of it limits assumed, form in doubt): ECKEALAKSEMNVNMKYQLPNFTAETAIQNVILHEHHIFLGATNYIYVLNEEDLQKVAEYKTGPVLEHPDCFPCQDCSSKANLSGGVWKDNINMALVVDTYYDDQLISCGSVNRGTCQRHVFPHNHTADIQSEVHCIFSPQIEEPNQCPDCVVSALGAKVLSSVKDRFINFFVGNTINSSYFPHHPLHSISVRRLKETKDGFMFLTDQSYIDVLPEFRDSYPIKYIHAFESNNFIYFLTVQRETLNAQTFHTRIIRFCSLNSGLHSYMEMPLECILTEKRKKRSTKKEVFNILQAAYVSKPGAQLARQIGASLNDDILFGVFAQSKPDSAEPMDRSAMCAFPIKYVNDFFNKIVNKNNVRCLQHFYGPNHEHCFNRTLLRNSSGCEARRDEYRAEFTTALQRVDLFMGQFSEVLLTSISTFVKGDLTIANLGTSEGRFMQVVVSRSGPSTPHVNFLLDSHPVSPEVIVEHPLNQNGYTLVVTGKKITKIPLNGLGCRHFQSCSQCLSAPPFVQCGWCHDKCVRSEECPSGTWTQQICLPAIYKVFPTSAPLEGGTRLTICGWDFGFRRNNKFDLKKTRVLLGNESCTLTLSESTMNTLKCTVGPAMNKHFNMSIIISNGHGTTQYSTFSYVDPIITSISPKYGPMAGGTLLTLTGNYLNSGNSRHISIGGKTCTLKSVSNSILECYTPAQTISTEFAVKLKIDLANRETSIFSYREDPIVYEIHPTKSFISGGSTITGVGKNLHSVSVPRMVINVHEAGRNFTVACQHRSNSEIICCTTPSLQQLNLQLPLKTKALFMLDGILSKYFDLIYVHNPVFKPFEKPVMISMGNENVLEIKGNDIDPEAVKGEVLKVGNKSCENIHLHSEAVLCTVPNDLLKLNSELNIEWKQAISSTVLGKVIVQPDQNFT

- EC50 (human EGFR on cells): 3.39 nM
- Maximum MFI value (human EGFR on cells): 80100 MFI
B1: pzn9B8.m2.m11 (VHH, not shown: small tags and cut ends)
VHH: EVQLLESGGGLVQPGGSLRLSCAASGLTFSYYAMAWFRQAPGKEREFVAAINWNQGNTYNTDSVKGRFTISRDNSKNTVYLQMNSLTPEDTAVYYCAVRYNQASYLVARSSDYNYWGQGTLVTVSS
notes: Humanized + PTM-removal anti-EGFR VHH-His; also called hu9B8

- EC50 (human EGFR on cells): 4.96 nM
- Maximum MFI value (human EGFR on cells): 85700 MFI
B2: pzn9B8.m2.m12 (VHH, not shown: small tags and cut ends)
VHH: EVQLLESGGGLVQPGGSLRLSCAASGLTFSYYAMAWFRQAPGKEREFVAAINWNAGNTYNTDSVKGRFTISRDNSKNTVYLQMNSLTPEDTAVYYCAVRYNAASYLVARSSDYNYWGQGTLVTVSS
notes: Humanized + PTM-removal anti-EGFR VHH-His

- EC50 (human cMet on cells): 5.1 nM
- Maximum MFI value (human cMet on cells): 40400 MFI
B3: pn7A12.N32X.m1 (VHH, not shown: small tags and cut ends)
VHH: EVQLVESGGGLVQAGGSLRLSCVASGNIFSSYHMGWFRQAPGKQREFIAYITTREITNYADSVKGRFTISRDNTKNTVYLQMNVLKPEDTAVYYCIADQSREIRRSWGQGTQVTVSS
notes: PTM-removal anti-cMet VHH-His

- EC50 (human cMet on cells): 4.96 nM
- Maximum MFI value (human cMet on cells): 38000 MFI
B4: pn7A12.N32X.m4 (VHH, not shown: small tags and cut ends)
VHH: EVQLVESGGGLVQAGGSLRLSCVASGNIFSSFHMGWFRQAPGKQREFIAYITTREITNYADSVKGRFTISRDNTKNTVYLQMNVLKPEDTAVYYCIADQSREIRRSWGQGTQVTVSS
notes: PTM-removal anti-cMet VHH-His

- EC50 (human cMet on cells): 4.45 nM
- Maximum MFI value (human cMet on cells): 44700 MFI
B5: pn7A12.N32X.m6 (VHH, not shown: small tags and cut ends)
VHH: EVQLVESGGGLVQAGGSLRLSCVASGNIFSSDHMGWFRQAPGKQREFIAYITTREITNYADSVKGRFTISRDNTKNTVYLQMNVLKPEDTAVYYCIADQSREIRRSWGQGTQVTVSS
notes: PTM-removal anti-cMet VHH-His

- EC50 (human cMet on cells): 4.16 nM
- Maximum MFI value (human cMet on cells): 49600 MFI
B6: pn7A12.N32X.m3 (VHH, not shown: small tags and cut ends)
VHH: EVQLVESGGGLVQAGGSLRLSCVASGNIFSSHHMGWFRQAPGKQREFIAYITTREITNYADSVKGRFTISRDNTKNTVYLQMNVLKPEDTAVYYCIADQSREIRRSWGQGTQVTVSS
notes: PTM-removal anti-cMet VHH-His

- Kd [1]: 22.8 nM
- koff [1]: 0.00764 s⁻¹
- kon [1]: 335000 M⁻¹ s⁻¹
- Kd [2]: 28.3 nM
- koff [2]: 0.00943 s⁻¹
- kon [2]: 334000 M⁻¹ s⁻¹
- Kd [3]: 6.61 nM
- koff [3]: 0.00125 s⁻¹
- kon [3]: 189000 M⁻¹ s⁻¹
- Kd [4]: 4.49 nM
- koff [4]: 0.000831 s⁻¹
- kon [4]: 185000 M⁻¹ s⁻¹
B7: V-15 (10A1-7A12-9A2) (bispecific antibody)
chain: QVQLVESGGGLVQAGGSLRLSCAASGRTGSLHAMGWFRQAPGKERERVATLNLSDGSAVTADSVKGRFTISTDNTKNSVYLQMNSLKPEDTAVYYCTASRSPSGIRYYKPDYWGQGTQVTVSSGGGGSEVQLVESGGGLVQAGGSLRLSCVASGNIFSSNHMGWFRQAPGKQREFIAYITTREITNYADSVKGRFTISRDNTKNTVYLQMNVLKPEDTAVYYCIADQSREIRRSWGQGTQVTVSSGGGGSGGGGSQSQLAESGGGLVQSGGSLGLSCVASGFTISRSIMSWYRQPPGKERDWVASIGSAGNTNYVDSVKGRFTISRDVAKNTVYLQMNSLKPEDTAVYYCKTTLAVSFSEYWGQGTQVTVSS
notes: Single-chain trispecific anti-EGFR/cMet antibody

- Kd [1]: 0.00135 nM
- koff [1]: 1.25e-07 s⁻¹
- kon [1]: 93200 M⁻¹ s⁻¹
- Kd [2]: 0.0128 nM
- koff [2]: 1.17e-06 s⁻¹
- kon [2]: 91600 M⁻¹ s⁻¹
- Kd [3]: 10.2 nM
- koff [3]: 0.00133 s⁻¹
- kon [3]: 130000 M⁻¹ s⁻¹
- Kd [4]: 6.59 nM
- koff [4]: 0.000789 s⁻¹
- kon [4]: 120000 M⁻¹ s⁻¹
B8: V-7 (9B8-9A2-7A12) (bispecific antibody)
chain: QVQLVESGGGLVQPGGSLRLSCAASGLTFSYYAMAWFRQAPGKEREFVAAINWNGGNTYNTDSVKGRFTISRDNAKNTVYLQMNSLKPEDTAVYYCAVRYNSASYLVARSSDYNYWGQGTLVTVSSGGGGSQSQLAESGGGLVQSGGSLGLSCVASGFTISRSIMSWYRQPPGKERDWVASIGSAGNTNYVDSVKGRFTISRDVAKNTVYLQMNSLKPEDTAVYYCKTTLAVSFSEYWGQGTQVTVSSGGGGSGGGGSEVQLVESGGGLVQAGGSLRLSCVASGNIFSSNHMGWFRQAPGKQREFIAYITTREITNYADSVKGRFTISRDNTKNTVYLQMNVLKPEDTAVYYCIADQSREIRRSWGQGTQVTVSS
notes: as for B7
